Source: publication PMC2662490

Biological target: FXR1P Nt-KH2–His6 (human)
Test: SAXS

- stoichiometry N: 2
Substance: FXR1P Nt-KH2–His6 (domain or fragment)
